Target: S1-mFc (SARS-CoV-2 S1 subunit, fusion protein with murine Fc part) (SARS-CoV-2 Wuhan-Hu-1 (MN908947), UniProt P0DTC2)
Experiment: ELISA

B1: STE90-C11 IgG (human IgG1 with silenced Fc) (antibody, V domains shown)
VH: QVQLVESGGGLVQPGGSLRLSCAASGLTVSSNYMSWVRQAPGKGLEWVSVIYSGGSTYYADSVKGRFTISRDDSKNTLYLQMNSLRAEDTAVYYCARDVADAFDIWGQGTMVTVSS
VL: DIVMTQSPSFLSASVGDRVTITCRASQGISSYLAWYQQKPGKAPKLLIYAASTLQSGVPSRFSGSGSGTEFTLTISSLQPEDFATYYCQQLNSYPPFTFGPGTKVDIK
  EC50: 0.2 nM

Reference: PMC8260561 (Cell Reports, 2021)
